Experimental data from US20200055939A1.
Positions count from the first letter of the chain named. “And” between values parts separate entries of the source, which are not always exact repeats. Identical values can stand only once. One block for each binder: values may come before it.

Legend:
[1] = target: G275A; test: SPR, Fab over captured MICA*008.mIgG2a Ala variant; KD relative to wild type
[2] = target: R240A; test: as above
[3] = target: V244A; test: as above
[4] = target: Y283A; test: as above
[5] = target: the other Glyco variants; test: ELISA, coated variant
[6] = target: D249A; test: SPR, Fab over captured MICA*008.mIgG2a Ala variant; KD relative to wild type
[7] = target: E285A; test: as above
[8] = target: H248A; test: as above
[9] = target: H290A; test: as above
[10] = target: I236A; test: as above
[11] = target: Q241A; test: as above
[12] = target: R274A; test: as above
[13] = target: R279A; test: as above
[14] = target: S245A; test: as above
[15] = target: T292A; test: as above
Sequence of T292A (chain, as listed by the source T292A T292A limits assumed): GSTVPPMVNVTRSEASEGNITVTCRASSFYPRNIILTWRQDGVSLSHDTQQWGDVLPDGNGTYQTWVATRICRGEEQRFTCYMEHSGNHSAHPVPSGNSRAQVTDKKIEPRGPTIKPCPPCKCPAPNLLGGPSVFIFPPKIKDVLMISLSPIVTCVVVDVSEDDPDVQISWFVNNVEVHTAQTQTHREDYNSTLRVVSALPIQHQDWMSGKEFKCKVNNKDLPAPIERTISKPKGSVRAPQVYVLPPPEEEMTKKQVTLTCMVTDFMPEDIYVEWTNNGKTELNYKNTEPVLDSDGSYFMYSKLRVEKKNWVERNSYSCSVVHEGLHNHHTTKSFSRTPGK

Sequence of V244A (chain, as listed by the source V244A V244A limits assumed): as the sequence (chain, as listed by the source T292A T292A limits assumed) above, with V43A, A91T counted along it
Sequence of Y283A (chain, as listed by the source Y283A Y283A limits assumed): as the sequence (chain, as listed by the source T292A T292A limits assumed) above, with Y82A, A91T counted along it
Sequence of R240A (chain, as listed by the source R240A R240A limits assumed): as the sequence (chain, as listed by the source T292A T292A limits assumed) above, with R39A, A91T counted along it
Sequence of G275A (chain, as listed by the source G275A G275A limits assumed): as the sequence (chain, as listed by the source T292A T292A limits assumed) above, with G74A, A91T counted along it
Sequence of R279A (chain, as listed by the source R279A R279A limits assumed): as the sequence (chain, as listed by the source T292A T292A limits assumed) above, with R78A, A91T counted along it
Sequence of D249A (chain, as listed by the source D249A D249A limits assumed): as the sequence (chain, as listed by the source T292A T292A limits assumed) above, with D48A, A91T counted along it
Sequence of I236A (chain, as listed by the source I236A I236A limits assumed): as the sequence (chain, as listed by the source T292A T292A limits assumed) above, with I35A, A91T counted along it
Sequence of H290A (chain, as listed by the source H290A H290A limits assumed): as the sequence (chain, as listed by the source T292A T292A limits assumed) above, with H89A, A91T counted along it
Sequence of R274A (chain, as listed by the source R274A R274A limits assumed): as the sequence (chain, as listed by the source T292A T292A limits assumed) above, with R73A, A91T counted along it
Sequence of Q241A (chain, as listed by the source Q241A Q241A limits assumed): as the sequence (chain, as listed by the source T292A T292A limits assumed) above, with Q40A, A91T counted along it
Sequence of E285A (chain, as listed by the source E285A E285A limits assumed): as the sequence (chain, as listed by the source T292A T292A limits assumed) above, with E84A, A91T counted along it
Sequence of H248A (chain, as listed by the source H248A H248A limits assumed): as the sequence (chain, as listed by the source T292A T292A limits assumed) above, with H47A, A91T counted along it
Sequence of S245A (chain, as listed by the source S245A S245A limits assumed): as the sequence (chain, as listed by the source T292A T292A limits assumed) above, with S44A, A91T counted along it

fold-decrease in affinity [1]: 3.1
fold-decrease in affinity [2]: 1500
fold-decrease in affinity [3]: 8.6
fold-decrease in affinity [4]: 3.2
B1: 7D4.6 Fab (Fab, V domains shown)
VH: DVQLQESGPGLVKPSQSLSLTCTVTGYSITSDYAWNWIRQFPRNKLEWMGYINYSGTTNYNPSLKSRISITRDTSKNQFFLQLISVTTEDTATYYCSYYRYDGAWFPYWGQGTLVTVSA
VL: DIQMTQSPASLSASVGETVTITCRASGNIHNYLAWYQQKQGKSPQLLVYNAIMLADGVPSRFSASGSGTQYSLKINSLQPEDFGSYYCQHFWSFPLTFGAGTKVEIK

fold-decrease in affinity [3]: 5.5
B2: 6F8.7 Fab (Fab, V domains shown)
VH: DVQLQGSGPGLVKPSQSLSLTCSVTGYSITNDYYWNWIRQFPGNKLEWMGFISFGGSNNYNPSLKNRISITRDTSKNQFFLKLSSVTTEDTATYYCARYDGRGAWFAYWAQGTLVTVSA
VL: B1 VL with N50D, M53T, A64G, S85N

Second part, the binder before the results:

B3: 13A9 (antibody, V domains shown)
VH: QVQLQQSGAELVRPGTSVKVSCKASGYAFTNYLIEWVKQRPGQGLEWIGAINPGSGATNYNEKFKDKARLTADKSSNTAYLQFSSLTSDDSAVYFCARFLGNYFDNWGQGATLTVSS
VL: DIQMTQSPASLSASVGETVTITCRASGNIHSYLAWYQQKQGKSPQLLVYYAETLADGVPSRFSGRGSGTQYSLKINSLQPEDFGSYFCQQFWTTPYTFGGGTKVEIK
Elisa value [5]: 3.8 and 3.9

B4: 1D5 Fab (Fab, V domains shown, not shown: a dimerising Fc or GST)
VH: EIQLQQSGPELVKPGASVKVSCKASGYAFTSQNIYWVKQSHGKSLEWIGYIEPYNVVPMYNPKFKGKATLTVDKSSSSAYIHLNSLTSEDSAIYYCARSGSSNFDYWGQGTTLTVSS
VL: EIILTQSPTTMAASPGEKITITCSASSSISSHYLHWYQQKSGFSPKLLIYRTSNLASGVPARFSGSGSGTSYSLTIGTMEAEDVATYYCQQGSSLPLTFGAGTKVEIK
fold-decrease in affinity [6]: 3.5
fold-decrease in affinity [7]: 1060
fold-decrease in affinity [1]: 0.03
fold-decrease in affinity [8]: 16
fold-decrease in affinity [9]: 14400
fold-decrease in affinity [10]: 0.01
fold-decrease in affinity [11]: 9830
fold-decrease in affinity [2]: 15500
fold-decrease in affinity [12]: 3
fold-decrease in affinity [13]: 3950
fold-decrease in affinity [14]: 13
fold-decrease in affinity [15]: 3040
fold-decrease in affinity [3]: 10400
fold-decrease in affinity [4]: 6260
